The values that follow come from US20200093922A1 (AGENCY FOR SCIENCE TECHNOLOGY AND RESEARCH, published 2020).

The target of assay [1] is T1, human PD-L1 coupled to human Fc (human, UniProt Q9NZQ7 19-239, limits assumed).
T1 construct: also called human PD-L1-Fc; not shown: human Fc
Description: SPR (Proteon XPR36), human PD-L1-Fc immobilised, crude H12 Fab extract flowed.

Assay [2] addresses T2, murine PD-L1 coupled to human Fc (murine, UniProt Q9EP73 19-238, limits assumed).
T2 construct: also called murine PD-L1-Fc; mouse PD-L1 coupled to Fc; not shown: human Fc
Put plainly: SPR (Proteon XPR36), mouse PD-L1-Fc immobilised, crude H12 Fab extract flowed.

Assay [3] addresses T1, human PD-L1 coupled to human Fc. Description: SPR, Proteon XPR36, human PD-L1-Fc immobilised, crude H12 Fab extract flown over. Background: SPR reads the build-up and loss of mass on a sensor chip optically.
The target of assay [4] is T2, murine PD-L1 coupled to human Fc. Put plainly: SPR, Proteon XPR36, murine PD-L1-Fc immobilised, crude H12 Fab extract flown over.
The target of assay [5] is biotinylated human PD-L1 (human, UniProt Q9NZQ7 19-238, limits assumed, biotinylated (site not stated)). Put plainly: blocking ELISA: biotinylated human PD-L1 pre-incubated with Fab, then added to coated human PD-1-Fc (blocked partner), streptavidin-HRP. (ELISA stands for enzyme-linked immunosorbent assay.)
The target in assay [6] is biotinylated murine PD-L1 (murine, UniProt Q9EP73 19-238, limits assumed, biotinylated (site not stated)). Description: blocking ELISA: biotinylated murine PD-L1 pre-incubated with Fab, then added to coated murine PD-1-Fc (blocked partner), streptavidin-HRP.
Sequence of biotinylated murine PD-L1 (Q9EP73 19-238 limits assumed): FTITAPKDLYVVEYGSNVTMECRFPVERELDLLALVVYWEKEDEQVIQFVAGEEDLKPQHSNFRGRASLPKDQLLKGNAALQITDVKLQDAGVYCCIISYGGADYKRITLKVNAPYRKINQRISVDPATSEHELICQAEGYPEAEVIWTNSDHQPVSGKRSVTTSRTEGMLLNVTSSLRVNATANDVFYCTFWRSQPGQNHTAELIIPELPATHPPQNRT

T2 sequence (Q9EP73 19-238 limits assumed): as above
T1 sequence (Q9NZQ7 19-239 limits assumed): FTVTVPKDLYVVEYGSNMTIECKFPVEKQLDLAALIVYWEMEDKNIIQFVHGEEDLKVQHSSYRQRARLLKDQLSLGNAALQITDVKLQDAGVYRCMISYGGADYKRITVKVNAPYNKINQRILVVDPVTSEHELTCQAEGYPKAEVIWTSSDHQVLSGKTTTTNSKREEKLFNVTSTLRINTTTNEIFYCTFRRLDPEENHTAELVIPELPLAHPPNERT
Sequence of biotinylated human PD-L1 (Q9NZQ7 19-238 limits assumed): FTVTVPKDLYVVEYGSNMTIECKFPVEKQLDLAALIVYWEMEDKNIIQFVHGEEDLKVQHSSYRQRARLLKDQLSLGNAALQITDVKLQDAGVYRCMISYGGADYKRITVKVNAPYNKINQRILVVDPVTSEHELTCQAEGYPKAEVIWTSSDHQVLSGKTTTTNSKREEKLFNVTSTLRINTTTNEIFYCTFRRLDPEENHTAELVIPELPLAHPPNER

B1: anti-PD-L1 antibody clone H12, Fab format (Fab, V domains shown)
VH: EVQLVQSGAEVKKPGASVKVSCKASGGTFSSYAISWVRQAPGQGLEWMGRIIPILGIANYAQKFQGRVTITADKSTSTAYMELSSLRSEDTAVYYCARSGHGYSYGAFDYWGQGTL
VL: QSVLTQPPSVSGAPGQRVTISCTGSSSNIGAGYDVHWYQQLPGTAPKLLIYGNSNRPSGVPDRFSGSKSGTSASLAITGLQAEDEADYYCQSYDSSLSGSYVVFGGGTKLTVL
notes: Tested as Fab; the SPR used a crude Fab extract; also called crude H12 Fab extract
As to B1, the Kd was 0.313 nM in assay [1] and 3.04 nM in assay [2]. Also, the figures for the koff in assay [3] and in assay [4] were 0.000471 s⁻¹ and 0.00407 s⁻¹, respectively. Further, the kon in assay [3] worked out at 1.5e+06 M⁻¹ s⁻¹; in assay [4] it was 1.34e+06 M⁻¹ s⁻¹. Further, the “IC50 (read off the curve)” value in assay [5] is about 20 nM; in assay [6], about 4 nM.

The Kd is the free concentration of one partner at which half of the binding sites on the other are occupied at equilibrium, for simple one-to-one binding. Read a low Kd as higher affinity. The koff is the first-order rate constant of dissociation. Broadly, the kon is the rate constant with which the complex forms. Read a low kon as slow association.
